Reference: patent US20170306033A1 (Amgen, published 2017)

How the values were obtained:
human CGRP receptor = human CGRP receptor (human, UniProt Q16602 23-461; O60894 27-148); assay: cell-based or functional assay
human PAC1 receptor = target: T1, human PAC1 receptor (human, UniProt P41586 21-468); assay: cell-based or functional assay
T1 sequence: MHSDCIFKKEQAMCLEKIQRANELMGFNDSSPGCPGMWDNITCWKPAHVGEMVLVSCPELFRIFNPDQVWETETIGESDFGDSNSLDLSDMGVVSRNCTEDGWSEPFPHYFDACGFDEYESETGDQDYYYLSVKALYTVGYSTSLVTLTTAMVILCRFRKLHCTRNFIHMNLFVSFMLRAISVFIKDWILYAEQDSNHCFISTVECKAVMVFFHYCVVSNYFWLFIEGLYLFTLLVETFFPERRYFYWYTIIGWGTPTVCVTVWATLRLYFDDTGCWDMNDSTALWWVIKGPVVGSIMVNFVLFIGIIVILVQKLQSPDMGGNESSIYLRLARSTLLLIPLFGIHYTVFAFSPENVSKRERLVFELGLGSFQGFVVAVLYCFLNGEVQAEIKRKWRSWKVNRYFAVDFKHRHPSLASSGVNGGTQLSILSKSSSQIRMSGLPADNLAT

Sequence of human CGRP receptor (Q16602 23-461 limits assumed, chain 1 of 2): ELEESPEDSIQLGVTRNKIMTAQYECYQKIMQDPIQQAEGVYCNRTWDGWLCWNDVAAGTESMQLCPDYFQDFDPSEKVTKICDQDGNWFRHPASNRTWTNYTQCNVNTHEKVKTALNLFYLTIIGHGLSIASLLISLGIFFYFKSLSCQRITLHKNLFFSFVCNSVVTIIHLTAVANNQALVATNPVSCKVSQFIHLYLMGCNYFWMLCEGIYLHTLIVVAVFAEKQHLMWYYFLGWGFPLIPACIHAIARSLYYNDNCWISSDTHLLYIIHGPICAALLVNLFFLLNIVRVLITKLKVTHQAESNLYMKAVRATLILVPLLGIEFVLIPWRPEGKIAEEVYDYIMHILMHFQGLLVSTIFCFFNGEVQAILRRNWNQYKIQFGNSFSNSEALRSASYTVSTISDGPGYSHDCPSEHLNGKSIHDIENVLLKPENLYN
Sequence of human CGRP receptor (O60894 27-148 limits assumed, chain 2 of 2): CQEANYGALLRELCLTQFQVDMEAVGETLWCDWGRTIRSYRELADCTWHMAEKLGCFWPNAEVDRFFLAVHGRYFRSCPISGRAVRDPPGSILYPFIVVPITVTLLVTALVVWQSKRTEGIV

Binder	Human CGRP Receptor IC50 (human CGRP receptor) [nM]	Human PAC1 Receptor IC50 (human PAC1 receptor) [nM]
iPS:386736 (bispecific antibody, human IgG1, kappa, N297G) light: DIQLTQSPSFLSASVGDRVTITCRASQSIGRSLHWYQQKPGKAPKLLIKYASQSLSGVPSRFSGSGSGTEFTLTISSLQPEDFATYYCHQSSRLPFTFGPGTKVDIKRTVAAPSVFIFPPSDEQLKSGTASVVCLLNNFYPREAKVQWKVDNALQSGNSQESVTEQDSKDSTYSLSSTLTLSKADYEKHKVYACEVTHQGLSSPVTKSFNRGEC heavy: not shown	0.9	5.43
iPS:386744 (bispecific antibody, human IgG1, kappa, N297G) light: DIQLTQSPSFLSASVGDRVTITCRASQSIGRSLHWYQQKPGKAPKLLIKYASQSLSGVPSRFSGSGSGTEFTLTISSLQPEDFATYYCHQSSRLPFTFGPGTKVDIKRTVAAPSVFIFPPSDEQLKSGTASVVCLLNNFYPREAKVQWKVDNALQSGNSQESVTEQDSKDSTYSLSSTLTLSKADYEKHKVYACEVTHQGLSSPVTKSFNRGEC heavy: not shown	0.61	3.63
iPS:386746 (bispecific antibody, human IgG1, kappa, N297G) light: DIQLTQSPSFLSASVGDRVTITCRASQSIGRSLHWYQQKPGKAPKLLIKYASQSLSGVPSRFSGSGSGTEFTLTISSLQPEDFATYYCHQSSRLPFTFGPGTKVDIKRTVAAPSVFIFPPSDEQLKSGTASVVCLLNNFYPREAKVQWKVDNALQSGNSQESVTEQDSKDSTYSLSSTLTLSKADYEKHKVYACEVTHQGLSSPVTKSFNRGEC heavy: not shown	0.79	3.28
iPS:386742 (bispecific antibody, human IgG1, kappa, N297G) light: DIQLTQSPSFLSASVGDRVTITCRASQSIGRSLHWYQQKPGKAPKLLIKYASQSLSGVPSRFSGSGSGTEFTLTISSLQPEDFATYYCHQSSRLPFTFGPGTKVDIKRTVAAPSVFIFPPSDEQLKSGTASVVCLLNNFYPREAKVQWKVDNALQSGNSQESVTEQDSKDSTYSLSSTLTLSKADYEKHKVYACEVTHQGLSSPVTKSFNRGEC heavy: not shown	0.61	6.39
iPS:386748 (bispecific antibody, human IgG1, kappa, N297G) light: DIQLTQSPSFLSASVGDRVTITCRASQSIGRSLHWYQQKPGKAPKLLIKYASQSLSGVPSRFSGSGSGTEFTLTISSLQPEDFATYYCHQSSRLPFTFGPGTKVDIKRTVAAPSVFIFPPSDEQLKSGTASVVCLLNNFYPREAKVQWKVDNALQSGNSQESVTEQDSKDSTYSLSSTLTLSKADYEKHKVYACEVTHQGLSSPVTKSFNRGEC heavy: not shown	0.63	2.85
iPS:386760 (bispecific antibody, human IgG1, kappa, N297G) light: DIQLTQSPSFLSASVGDRVTITCRASQSIGRSLHWYQQKPGKAPKLLIKYASQSLSGVPSRFSGSGSGTEFTLTISSLQPEDFATYYCHQSSRLPFTFGPGTKVDIKRTVAAPSVFIFPPSDEQLKSGTASVVCLLNNFYPREAKVQWKVDNALQSGNSQESVTEQDSKDSTYSLSSTLTLSKADYEKHKVYACEVTHQGLSSPVTKSFNRGEC heavy: not shown	2.11	4.67
iPS:386740 (bispecific antibody, human IgG1, kappa, N297G) light: DIQLTQSPSFLSASVGDRVTITCRASQSIGRSLHWYQQKPGKAPKLLIKYASQSLSGVPSRFSGSGSGTEFTLTISSLQPEDFATYYCHQSSRLPFTFGPGTKVDIKRTVAAPSVFIFPPSDEQLKSGTASVVCLLNNFYPREAKVQWKVDNALQSGNSQESVTEQDSKDSTYSLSSTLTLSKADYEKHKVYACEVTHQGLSSPVTKSFNRGEC heavy: not shown	0.56	4.4
iPS:386758 (bispecific antibody, human IgG1, kappa, N297G) light: DIQLTQSPSFLSASVGDRVTITCRASQSIGRSLHWYQQKPGKAPKLLIKYASQSLSGVPSRFSGSGSGTEFTLTISSLQPEDFATYYCHQSSRLPFTFGPGTKVDIKRTVAAPSVFIFPPSDEQLKSGTASVVCLLNNFYPREAKVQWKVDNALQSGNSQESVTEQDSKDSTYSLSSTLTLSKADYEKHKVYACEVTHQGLSSPVTKSFNRGEC heavy: not shown	2.32	4.11
iPS:386752 (bispecific antibody, human IgG1, kappa, N297G) light: DIQLTQSPSFLSASVGDRVTITCRASQSIGRSLHWYQQKPGKAPKLLIKYASQSLSGVPSRFSGSGSGTEFTLTISSLQPEDFATYYCHQSSRLPFTFGPGTKVDIKRTVAAPSVFIFPPSDEQLKSGTASVVCLLNNFYPREAKVQWKVDNALQSGNSQESVTEQDSKDSTYSLSSTLTLSKADYEKHKVYACEVTHQGLSSPVTKSFNRGEC heavy: not shown	0.62	6.08
iPS:386754 (bispecific antibody, human IgG1, kappa, N297G) light: DIQLTQSPSFLSASVGDRVTITCRASQSIGRSLHWYQQKPGKAPKLLIKYASQSLSGVPSRFSGSGSGTEFTLTISSLQPEDFATYYCHQSSRLPFTFGPGTKVDIKRTVAAPSVFIFPPSDEQLKSGTASVVCLLNNFYPREAKVQWKVDNALQSGNSQESVTEQDSKDSTYSLSSTLTLSKADYEKHKVYACEVTHQGLSSPVTKSFNRGEC heavy: not shown	0.54	5.74
iPS:386750 (bispecific antibody, human IgG1, kappa, N297G) light: DIQLTQSPSFLSASVGDRVTITCRASQSIGRSLHWYQQKPGKAPKLLIKYASQSLSGVPSRFSGSGSGTEFTLTISSLQPEDFATYYCHQSSRLPFTFGPGTKVDIKRTVAAPSVFIFPPSDEQLKSGTASVVCLLNNFYPREAKVQWKVDNALQSGNSQESVTEQDSKDSTYSLSSTLTLSKADYEKHKVYACEVTHQGLSSPVTKSFNRGEC heavy: not shown	0.58	4.54
iPS:386738 (bispecific antibody, human IgG1, kappa, N297G) light: DIQLTQSPSFLSASVGDRVTITCRASQSIGRSLHWYQQKPGKAPKLLIKYASQSLSGVPSRFSGSGSGTEFTLTISSLQPEDFATYYCHQSSRLPFTFGPGTKVDIKRTVAAPSVFIFPPSDEQLKSGTASVVCLLNNFYPREAKVQWKVDNALQSGNSQESVTEQDSKDSTYSLSSTLTLSKADYEKHKVYACEVTHQGLSSPVTKSFNRGEC heavy: not shown	0.74	5.09
iPS:386762 (bispecific antibody, human IgG1, kappa, N297G) light: DIQLTQSPSFLSASVGDRVTITCRASQSIGRSLHWYQQKPGKAPKLLIKYASQSLSGVPSRFSGSGSGTEFTLTISSLQPEDFATYYCHQSSRLPFTFGPGTKVDIKRTVAAPSVFIFPPSDEQLKSGTASVVCLLNNFYPREAKVQWKVDNALQSGNSQESVTEQDSKDSTYSLSSTLTLSKADYEKHKVYACEVTHQGLSSPVTKSFNRGEC heavy: not shown	2.8	3.55
iPS:386756 (bispecific antibody, human IgG1, kappa, N297G) light: DIQLTQSPSFLSASVGDRVTITCRASQSIGRSLHWYQQKPGKAPKLLIKYASQSLSGVPSRFSGSGSGTEFTLTISSLQPEDFATYYCHQSSRLPFTFGPGTKVDIKRTVAAPSVFIFPPSDEQLKSGTASVVCLLNNFYPREAKVQWKVDNALQSGNSQESVTEQDSKDSTYSLSSTLTLSKADYEKHKVYACEVTHQGLSSPVTKSFNRGEC heavy: not shown	1.88	7.29
iPS:386727 (bispecific antibody, human IgG1, lambda, N297G) light: QSVLTQPPSVSAAPGQKVTISCSGSSSNIGNNYVSWYQQLPGTAPKLLIYDNNKRPSGIPDRFSGSKSGTSATLGITGLQTGDEADYYCGTWDSRLSAVVFGGGTKLTVLGQPKANPTVTLFPPSSEELQANKATLVCLISDFYPGAVTVAWKADGSPVKAGVETTKPSKQSNNKYAASSYLSLTPEQWKSHRSYSCQVTHEGSTVEKTVAPTECS heavy: not shown	0.72	371
iPS:386731 (bispecific antibody, human IgG1, lambda, N297G) light: QSVLTQPPSVSAAPGQKVTISCSGSSSNIGNNYVSWYQQLPGTAPKLLIYDNNKRPSGIPDRFSGSKSGTSTTLGITGLQTGDEADYYCGTWDSRLSAVVFGGGTKLTVLGQPKANPTVTLFPPSSEELQANKATLVCLISDFYPGAVTVAWKADGSPVKAGVETTKPSKQSNNKYAASSYLSLTPEQWKSHRSYSCQVTHEGSTVEKTVAPTECS heavy: not shown	0.4	347
iPS:386733 (bispecific antibody, human IgG1, lambda, N297G) light: QSVLTQPPSVSAAPGQKVTISCSGSSSNIGNNYVSWYQQLPGTAPKLLIYDNNKRPSGIPDRFSGSKSGTSATLAITGLQTGDEADYYCGTWDSRLSAVVFGGGTKLTVLGQPKANPTVTLFPPSSEELQANKATLVCLISDFYPGAVTVAWKADGSPVKAGVETTKPSKQSNNKYAASSYLSLTPEQWKSHRSYSCQVTHEGSTVEKTVAPTECS heavy: not shown	0.34	74.3
iPS:386729 (bispecific antibody, human IgG1, lambda, N297G) light: QSVLTQPPSVSAAPGQKVTISCSGSSSNIGNNYVSWYQQLPGTAPKLLIYDNNKRPSGIPDRFSGSKSGTSATLAITGLQTGDEADYYCGTWDSRLSAVVFGGGTKLTVLGQPKANPTVTLFPPSSEELQANKATLVCLISDFYPGAVTVAWKADGSPVKAGVETTKPSKQSNNKYAASSYLSLTPEQWKSHRSYSCQVTHEGSTVEKTVAPTECS heavy: not shown	0.47	565
